± gives the uncertainty stated by the source.

A short description of the data set: self-splicing fitness, log relative to wild type (ln ratio); higher = more splicing; Tetrahymena group I intron in knt gene, E. coli kanamycin selection, DiMSum; sequences stand for … in CUCUCU…GGAGGGAAAAGUUAUCAGGCAUGCACCUGGUAGCUAGUCUUUAAACCAAUAGAUUGCAUCGGUUUAAAAGGCAAGACCGUCAAAUUGCGGGAAAGGGGUCAACAGCCGUUCAGUACCAAGUCUCAGGGGAAACUUUGAGAUGGCCUUGCAAAGGGUAUGGUAAUAAGCUGACGGACAUGGUCCUAACCACGCAGCCAAGUCCUAAGUCAACAGAUCUUCUGUUGAUAUGGAUGCAGUUCACAGACUAAAUGUCGGUCGGGGAAGAUGUAUUCUUCUCAUAAGAUAUAGUCGGACCUCUCCUUAAUGGGAGCUAGCGGAUGAAGUGAUGCAACACUGGAGCCGCUGGGAACUAAUUUGUAUGCGAAAGUAUAUUGAUUAGUUUUGGAGUACUCGUGGUCG
Summed up: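 The eight P1ex-region nucleotides of an intron in the knt kanamycin-resistance gene on pET-22b(+) were all randomised and the library put into E. coli BL21(DE3). Six replicate transformations were grown overnight at 37°C or 30°C on LB agar with or without 25 μg/mL kanamycin, together with 100 μg/mL carbenicillin, 50 μM IPTG and 0.2% rhamnose. Colonies were pooled and amplicon-sequenced on an Illumina HiSeq 2500. Fitness from DiMSum is the error-weighted combination of wild-type-normalised replicate fold changes, kanamycin over none.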

Regarding AGAAAGCAAUAUUACGCUCC, the “self-splicing fitness (ln)” value (30 °C) was -1.89 ± 0.23 and the “self-splicing fitness (ln)” value (37 °C) is -1.19 ± 0.24.

For UUGCAGCAAUAUUACGGGGU, the “self-splicing fitness (ln)” value is -4.28 ± 0.2 (30 °C) and -2.51 ± 0.18 (37 °C).

On to GGACAGCAAUAUUACGAUGU, for which the “self-splicing fitness (ln)” value (30 °C) is -2.12 ± 0.055 and the “self-splicing fitness (ln)” value (37 °C) is -0.961 ± 0.057.

For CCUUAGCAAUAUUACGAUGG, the “self-splicing fitness (ln)” value runs as follows: (30 °C) -2.24 ± 0.13; (37 °C) -2.26 ± 0.16.

For UCAUAGCAAUAUUACGACAU, the “self-splicing fitness (ln)” value (30 °C) is -4.005 ± 0.032 and the “self-splicing fitness (ln)” value (37 °C) was -2.92 ± 0.042.

Consider GAGUAGCAAUAUUACGUUUC, for which the “self-splicing fitness (ln)” value by setting is: (30 °C) -2.82 ± 0.18; (37 °C) -2.54 ± 0.27.

Regarding AGUGAGCAAUAUUACGAAAU, the “self-splicing fitness (ln)” value (37 °C) was -2.07 ± 0.39.

Regarding UGUGAGCAAUAUUACGCAUC, where the note is “37 °C”, the “self-splicing fitness (ln)” value was -2.15 ± 0.26.

Take GAUCAGCAAUAUUACGGACC: the “self-splicing fitness (ln)” value is -0.933 ± 0.32 (30 °C) and -1.08 ± 0.36 (37 °C).

In the case of UCCAAGCAAUAUUACGAAUA, the “self-splicing fitness (ln)” value by setting is: (30 °C) -2.4 ± 0.16; (37 °C) -1.13 ± 0.097.

With GAGGAGCAAUAUUACGCAUA, the “self-splicing fitness (ln)” value (30 °C) was -1.86 ± 0.35.

In the case of AUCGAGCAAUAUUACGAAGC, for the setting “30 °C”, the “self-splicing fitness (ln)” value was -3.18 ± 0.39.

As to ACGCAGCAAUAUUACGAUAU, the “self-splicing fitness (ln)” value (30 °C) was -2.42 ± 0.096 and the “self-splicing fitness (ln)” value (37 °C) was -1.02 ± 0.12.

For the sequence CGAGAGCAAUAUUACGAUAC, the “self-splicing fitness (ln)” value runs as follows: (30 °C) -3.49 ± 0.42; (37 °C) -1.05 ± 0.26.

Consider UGUUAGCAAUAUUACGACUG, for which the “self-splicing fitness (ln)” value turned out to be 0.492 ± 0.095 (30 °C) and 0.167 ± 0.12 (37 °C).

On to UUGAAGCAAUAUUACGCCUC, for which the “self-splicing fitness (ln)” value (37 °C) is -1.63 ± 0.42.

Consider GGGAAGCAAUAUUACGUAGA, for which the “self-splicing fitness (ln)” value (30 °C) is -1.36 ± 0.15 and the “self-splicing fitness (ln)” value (37 °C) was -0.824 ± 0.19.

As to CCCCAGCAAUAUUACGCAAC, the “self-splicing fitness (ln)” value reads like this: (30 °C) -3.54 ± 0.14; (37 °C) -2.48 ± 0.15.

On to CGAGAGCAAUAUUACGUGGA, for which the “self-splicing fitness (ln)” value was -3.7 ± 0.26 (30 °C) and -2.89 ± 0.23 (37 °C).

In the case of UAUCAGCAAUAUUACGAUUG, the “self-splicing fitness (ln)” value by setting is: (30 °C) -0.748 ± 0.087; (37 °C) 0.588 ± 0.1.

As to AAUUAGCAAUAUUACGUGUU, the “self-splicing fitness (ln)” value is -1.05 ± 0.11 (30 °C) and -1.78 ± 0.13 (37 °C).

On to GGCCAGCAAUAUUACGCGAA, for which the “self-splicing fitness (ln)” value is -0.824 ± 0.12 (30 °C) and -1.41 ± 0.14 (37 °C).

For the sequence UCGCAGCAAUAUUACGAACA, the “self-splicing fitness (ln)” value (30 °C) was -1.65 ± 0.12 and the “self-splicing fitness (ln)” value (37 °C) was determined as 0.339 ± 0.13.

ACUCAGCAAUAUUACGUCAA: the “self-splicing fitness (ln)” value is, setting by setting: (30 °C) -2.56 ± 0.1; (37 °C) -1.78 ± 0.14.

As to UCUCAGCAAUAUUACGAGGC, the “self-splicing fitness (ln)” value (37 °C) was -1.54 ± 0.36.

With GAAGAGCAAUAUUACGUCGA, the “self-splicing fitness (ln)” value (30 °C) is -1.47 ± 0.21 and the “self-splicing fitness (ln)” value (37 °C) was -1.76 ± 0.31.

As for CGCUAGCAAUAUUACGGAGU, the “self-splicing fitness (ln)” value was -3.65 ± 0.27 (30 °C) and -2.42 ± 0.25 (37 °C).

UCUAAGCAAUAUUACGACAA: the “self-splicing fitness (ln)” value reads like this: (30 °C) -1.13 ± 0.11; (37 °C) -1.33 ± 0.11.

Consider CUGCAGCAAUAUUACGUCAA, for which the “self-splicing fitness (ln)” value is -3.08 ± 0.17 (30 °C) and -1.47 ± 0.12 (37 °C).

As for CCUAAGCAAUAUUACGUCCA, the “self-splicing fitness (ln)” value by setting is: (30 °C) -3.28 ± 0.25; (37 °C) -2.1 ± 0.41.

For the sequence AGCUAGCAAUAUUACGACGU, the “self-splicing fitness (ln)” value is, setting by setting: (30 °C) 0.0109 ± 0.068; (37 °C) -0.112 ± 0.08.

For the sequence AAUCAGCAAUAUUACGCACG, the “self-splicing fitness (ln)” value is, setting by setting: (30 °C) -1.02 ± 0.17; (37 °C) -1.1 ± 0.16.

Take CGAGAGCAAUAUUACGUAUG: the “self-splicing fitness (ln)” value was -3.68 ± 0.29 (30 °C) and -1.49 ± 0.21 (37 °C).

Regarding GAACAGCAAUAUUACGAGAG, the “self-splicing fitness (ln)” value (30 °C) is -3.49 ± 0.17 and the “self-splicing fitness (ln)” value (37 °C) was -1.83 ± 0.1.

Regarding CGGCAGCAAUAUUACGUAGU, the “self-splicing fitness (ln)” value reads like this: (30 °C) -3.77 ± 0.21; (37 °C) -0.852 ± 0.12.

The record behind these values is the supplement of paper PMC7877785.
